From PMC3695027, “Structural Insights into the Effector – Immunity System Tae4/Tai4 from Salmonella typhimurium” (PLoS ONE, 2013)
Read-outs that look alike come from different tables or passages of the source.

Legend:
[1] = molecular target: Tae4-ATTO 488 (fluorescently labelled Tae4 from Salmonella typhimurium) (Salmonella typhimurium); experiment: stopped-flow fluorescence kinetics; dissociation: preassembled Tae4-ATTO 488/Tai4 complex (0.1 µM wild type or 0.2 µM mutant) chased with 1 or 2 µM unlabelled Tae4; apparent dissociation rate constant; limit for the wild type from simulated traces; KD calculated as koff/kon with the kon of the direct mixing
[2] = molecular target: Tae4-ATTO 488 (fluorescently labelled Tae4 from Salmonella typhimurium) (Salmonella typhimurium); experiment: stopped-flow fluorescence kinetics; association by direct mixing: 0.1 µM Tae4-ATTO 488 with 0.3-1.5 µM Tai4; 293 K; 50 mM MES pH 6.5, 200 mM NaCl; kobs against Tai4 concentration, kon from the slope
[3] = molecular target: Tae4-ATTO 488 (fluorescently labelled Tae4 from Salmonella typhimurium) (Salmonella typhimurium); experiment: stopped-flow fluorescence kinetics; dissociation: preassembled Tae4-ATTO 488/Tai4 complex (0.1 µM wild type or 0.2 µM mutant) chased with 1 or 2 µM unlabelled Tae4; apparent dissociation rate constant; limit for the wild type from simulated traces; KD calculated as koff/kon with the kon of the direct mixing; remark: listed apart in the source
[4] = molecular target: T1, Tae4 effector protein from Salmonella typhimurium (full-length, hexahistidine-tagged) (Salmonella typhimurium, UniProt Q93IS4 1-161); experiment: ITC; 29.5 µM wild-type Tai4 titrated into 2.17 µM Tae4 in the cell; 293 K; 50 mM MES pH 6.5, 200 mM NaCl; single-site binding model; settings: both partners purified
T1 construct: Tae4, Salmonella typhimurium, NP_459275.1, full-length orf; Asn2 to the C-terminal Pro161 modelled in the crystal structure; The single-expression construct was cut out of the bicistronic construct (NcoI/MfeI), so the Tae4 chain is the same in both; No tag removal is described; The crystal for PDB 4J30 held the selenomethionine-substituted complex; also called type-6-secretion amidase effector 4; …
T1 sequence: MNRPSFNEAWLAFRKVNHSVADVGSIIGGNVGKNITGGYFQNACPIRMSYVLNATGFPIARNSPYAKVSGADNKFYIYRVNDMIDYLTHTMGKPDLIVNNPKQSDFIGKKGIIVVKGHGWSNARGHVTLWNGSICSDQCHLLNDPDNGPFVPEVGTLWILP

[5] = molecular target: the molecule itself; experiment: cross-linking; glutaraldehyde, 0.25 µg/µl protein in 20 mM HEPES pH 7.5, 37°C, aliquots 0 to 60 min, Coomassie-stained SDS-PAGE
[6] = molecular target: T2, Tae4 effector protein from Salmonella typhimurium (full-length, hexahistidine-tagged) (Salmonella typhimurium, UniProt Q93IS4 1-161); experiment: ITC
T2 chain: T1 sequence

[7] = molecular target: T1, Tae4 effector protein from Salmonella …; experiment: stopped-flow fluorescence kinetics; association by intrinsic tryptophan fluorescence (excitation 280 nm): 1.8 µM unlabelled Tae4 with 2.3-9.9 µM wild-type Tai4; 50 mM MES pH 6.5, 200 mM NaCl; data not shown; settings: both partners purified
[8] = molecular target: T1, Tae4 effector protein from Salmonella …; experiment: SEC-MALS; Superdex200 10/300 GL with multiangle light scattering detector; 50 mM Tris-HCl pH 8.0, 200 mM NaCl; 100 µM protein, 40 µl applied, 0.5 ml/min; settings: both partners purified

With “Tai4 immunity protein from Salmonella typhimurium, wild type, periplasmic (C-terminal hexahistidine tag) (from UniProt Q8ZRL5 27-127) (natural protein)” the Kd [1] was less than 0.28 nM, the koff [1] was less than 0.0007 s⁻¹ and the kon [2] was 2.48e+06 M⁻¹ s⁻¹. It also gave a koff [3] of 7e-05 to 0.0007 s⁻¹.

With “Tai4(E71A_S98A) variant of the immunity protein from Salmonella typhimurium (C-terminal hexahistidine tag) (natural protein)” the Kd [1] was 255 nM, the koff [1] was 0.716 s⁻¹ and the kon [2] was 2.81e+06 M⁻¹ s⁻¹.

B1: Tai4 immunity protein from Salmonella typhimurium, wild type, periplasmic (C-terminal hexahistidine tag) (natural protein)
chain: QEALTTQYSQSELLKNWALSHCLALVYKDDVVKNDARATASAYLEYGKQSVEIYHEIDEIAKKYSGLKYNGSISSDFNTMKCIDFIHDRELNELIKRRVEK
notes: Tai4, Salmonella typhimurium, NP_459276.1; Dimer in solution (cross-linking, static light scattering); the calculated dimer mass of 25.95 kDa fits the cut, tagged protein; also called Tai4wt; wild-type Tai4
With B1 the Kd [4] was less than 1 nM, the “stoichiometry N” value [5] was 2 and the Kd [6] was 1.28 nM. For the same molecule, the kon [7] was 2.57e+06 ± 233000 M⁻¹ s⁻¹.

B2: Tai4 immunity protein from Salmonella typhimurium, untagged, co-expressed with Tae4 (as in the Tae4/Tai4 complex) (natural protein)
chain: B1 chain
notes: Tai4, Salmonella typhimurium, NP_459276.1; Gln27 to Lys127 modelled in the crystal structure; Homodimer at the centre of the Tae4_2/Tai4_2 heterotetramer; The crystal for PDB 4J30 held the selenomethionine-substituted complex
With B2 the “stoichiometry N” value [8] was 1 Tai4 per Tae4 (2:2).
